Experimental data reported in patent US20110244473A1.

Biological target: Death Receptor 5 (human) (UniProt O14763)
Experiment: cell-based or functional assay

Chain of UniProt O14763 (O14763 other isoform, or with tags, fused parts or gaps limits assumed): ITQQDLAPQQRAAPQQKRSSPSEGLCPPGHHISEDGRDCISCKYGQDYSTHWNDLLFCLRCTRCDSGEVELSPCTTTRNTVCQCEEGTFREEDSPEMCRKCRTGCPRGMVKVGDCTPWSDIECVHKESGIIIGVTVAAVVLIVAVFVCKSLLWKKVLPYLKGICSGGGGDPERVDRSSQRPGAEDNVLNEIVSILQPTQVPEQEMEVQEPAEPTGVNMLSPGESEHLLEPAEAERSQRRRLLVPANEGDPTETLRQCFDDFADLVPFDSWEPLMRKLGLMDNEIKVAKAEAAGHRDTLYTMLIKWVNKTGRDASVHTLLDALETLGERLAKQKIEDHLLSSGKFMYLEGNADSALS

Question: Which results are given for “Flag-tagged human recombinant soluble Apo2L/TRAIL cross-linked by anti-FLAG M2 antibody (from UniProt P50591 114-281) (ligand)”?
Answer: rate of DR5 endocytosis: 2 fold; receptor internalizing over 2 hr (fraction of the receptor): 0.33

Question: For “human recombinant soluble Apo2L/TRAIL, non-tagged (trimeric) (from UniProt P50591 114-281) (ligand)”, which rate of DR5 endocytosis is on record?
Answer: 2 fold

Question: And the receptor internalizing over 2 hr (fraction of the receptor)?
Answer: 0.33
